In article PMC10266979:

Tests used:
[1] = molecular target: Recombinant neuraminidase (N2) from H3N2 A/Tanzania/205/2010 (influenza A virus H3N2 A/Tanzania/205/2010); assay: cryo-EM structure
[2] = molecular target: Recombinant neuraminidase (N2) from H3N2 A/Tanzania/205/2010 with S245N and S247T mutations (influenza A virus H3N2 A/Tanzania/205/2010); assay: cryo-EM structure

Substance | stoichiometry N [1] | stoichiometry N [2]
Recombinant neuraminidase (N2) from H3N2 A/Tanzania/205/2010 (enzyme) | 4 | 
Recombinant neuraminidase (N2) from H3N2 A/Tanzania/205/2010 with S245N and S247T mutations (enzyme) |  | 4
